The subject of this experiment is COVID-19. Nature of the experiment: Intubated hospitalized critically ill COVID-19 patients. It is filed as in vivo, human. The note with it: patients in a critical condition with cytokine storm.

B1: lactoferrin (protein, UniProt P24627 20-708, looked up)
Lactotransferrin: APRKNVRWCTISQPEWFKCRRWQWRMKKLGAPSITCVRRAFALECIRAIAEKKADAVTLDGGMVFEAGRDPYKLRPVAAEIYGTKESPQTHYYAVAVVKKGSNFQLDQLQGRKSCHTGLGRSAGWIIPMGILRPYLSWTESLEPLQGAVAKFFSASCVPCIDRQAYPNLCQLCKGEGENQCACSSREPYFGYSGAFKCLQDGAGDVAFVKETTVFENLPEKADRDQYELLCLNNSRAPVDAFKECHLAQVPSHAVVARSVDGKEDLIWKLLSKAQEKFGKNKSRSFQLFGSPPGQRDLLFKDSALGFLRIPSKVDSALYLGSRYLTTLKNLRETAEEVKARYTRVVWCAVGPEEQKKCQQWSQQSGQNVTCATASTTDDCIVLVLKGEADALNLDGGYIYTAGKCGLVPVLAENRKSSKHSSLDCVLRPTEGYLAVAVVKKANEGLTWNSLKDKKSCHTAVDRTAGWNIPMGLIVNQTGSCAFDEFFSQSCAPGADPKSRLCALCAGDDQGLDKCVPNSKEKYYGYTGAFRCLAEDVGDVAFVKNDTVWENTNGESTADWAKNLNREDFRLLCLDGTRKPVTEAQSCHLAVAPNHAVVSRSDRAAHVKQVLLHQQALFGKNGKNCPDKFCLFKSETKNLLFNDNTECLAKLGGRPTYEEYLGTEYVTAIANLKKCSTSPLLEACAFLTR
notes: bovine LF used
With B1, the “IL-6, TNF alpha, ferritin and DD2 parameters” value is given as “normalizing or decreasing”.

The values are drawn from US20230190652A1, “COMPOSITION FOR THE TREATMENT OF COVID-19 AND TREATMENT METHOD” (priority 2020, published 2023).
